Laboratory results as given in patent US20080182978A1, “ANTI-NGF ANTIBODIES AND METHODS USING SAME” (RINAT NEUROSCIENCE CORP, priority 2002, published 2008).

Test: Dose response of E3 on body weight in arthritic rats (Example 9)
Type: in vivo, rat
Method: The ability of E3 to produce reduction in pain in arthritic rats was further investigated by examining the dose response relationship between E3 administration and pain reduction. Rats were treated with adjuvant to induce arthritis as described above. Ten rats not injected with adjuvant were used as non-arthritic controls. Fourteen days after adjuvant injection, animals were qualified into the study based on the criteria stated above, randomized into eight groups of ten rats and tested for the intensity of their vocalization response. They were then dosed on day 14 with saline, or 0.003 mg/kg, 0.01 mg/kg, 0.03 mg/kg, 0.1 mg/kg, 0.3 mg/kg, 1 mg/kg or 5 mg/kg of E3 antibody as described above. Animals were tested for their vocalization response on days 16, 18, 20, and 24. Animals were redosed with saline or the same dose of E3 on day 18 after the vocalization testing. Animals were also weighed each day, starting at day 14. Thus, animals were dosed twice with a given dose of antibody or saline on days 14 and 18, and assessed for pain five times, on days 14, 16, 18, 20 and 24. Data are shown in Tables 20-22 and in FIGS. 20-22.
The effect of treating animals with various doses of anti-NGF antibody E3 on body weight was statistically analyzed by using two-way ANOVA to compare the results obtained pairwise between arthritic animals treated with vehicle with those treated with a given dose of antibody E3. […] At all higher dose of E3, the difference between treated and untreated arthritic animals was significant (p= or <0.0001). […]

[1] = E3 0.1 mg/kg on days 14+18, day 17
[2] = E3 0.1 mg/kg on days 14+18, day 18
[3] = E3 0.1 mg/kg on days 14+18, day 20
[4] = E3 0.1 mg/kg on days 14+18, day 21
[5] = E3 0.1 mg/kg on days 14+18, day 23
[6] = E3 0.1 mg/kg on days 14+18, day 24
[7] = E3 0.3 mg/kg on days 14+18, day 14
[8] = E3 0.3 mg/kg on days 14+18, day 15
[9] = E3 0.3 mg/kg on days 14+18, day 16
[10] = E3 0.3 mg/kg on days 14+18, day 17
[11] = E3 0.3 mg/kg on days 14+18, day 18
[12] = E3 0.3 mg/kg on days 14+18, day 20
[13] = E3 0.3 mg/kg on days 14+18, day 21
[14] = E3 0.3 mg/kg on days 14+18, day 23
[15] = E3 0.3 mg/kg on days 14+18, day 24
[16] = E3 1.0 mg/kg on days 14+18, day 14
[17] = E3 1.0 mg/kg on days 14+18, day 15
[18] = E3 1.0 mg/kg on days 14+18, day 16
[19] = E3 1.0 mg/kg on days 14+18, day 17
[20] = E3 1.0 mg/kg on days 14+18, day 18
[21] = E3 1.0 mg/kg on days 14+18, day 20
[22] = E3 1.0 mg/kg on days 14+18, day 21
[23] = E3 1.0 mg/kg on days 14+18, day 23
[24] = E3 1.0 mg/kg on days 14+18, day 24
[25] = E3 5.0 mg/kg on days 14+18, day 14
[26] = E3 5.0 mg/kg on days 14+18, day 15
[27] = E3 5.0 mg/kg on days 14+18, day 16
[28] = E3 5.0 mg/kg on days 14+18, day 17
[29] = E3 5.0 mg/kg on days 14+18, day 18
[30] = E3 5.0 mg/kg on days 14+18, day 20
[31] = E3 5.0 mg/kg on days 14+18, day 21
[32] = E3 5.0 mg/kg on days 14+18, day 23
[33] = E3 5.0 mg/kg on days 14+18, day 24

B1: E3: humanized, affinity matured anti-NGF antagonist antibody; variable regions SEQ ID NO:1 and 2; human IgG2a (A330P331 to S330S331), kappa (antibody, V domains shown)
VH: QVQLQESGPGLVKPSETLSLTCTVSGFSLIGYDLNWIRQPPGKGLEWIGIIWGDGTTDYNSAVKSRVTISKDTSKNQFSLKLSSVTAADTAVYYCARGGYWYATSYYFDYWGQGTLVTVS
VL: DIQMTQSPSSLSASVGDRVTITCRASQSISNNLNWYQQKPGKAPKLLIYYTSRFHSGVPSRFSGSGSGTDFTFTISSLQPEDIATYYCQQEHTLPYTFGQGTKLEIKRT
modifications: human IgG2a constant (A330S/P331S) and kappa constant missing
- Body weight normalized to day 14 (E3 0.1 mg/kg on days 14+18, day 16): 101.07
- Body weight normalized to day 0 [1]: 115.99
- Body weight normalized to day 14 [1]: 101.89
- Body weight normalized to day 0 [2]: 118.01
- Body weight normalized to day 14 [2]: 103.69
- Body weight normalized to day 0 [3]: 122.17
- Body weight normalized to day 14 [3]: 107.36
- Body weight normalized to day 0 [4]: 123.49
- Body weight normalized to day 14 [4]: 108.50
- Body weight normalized to day 0 [5]: 124.35
- Body weight normalized to day 14 [5]: 109.25
- Body weight normalized to day 0 [6]: 123.77
- Body weight normalized to day 14 [6]: 108.77
- Body weight normalized to day 0 (E3 0.3 mg/kg on days 14+18, day 0): 100.00
- Body weight normalized to day 0 (E3 0.3 mg/kg on days 14+18, day 1): 99.26
- Body weight normalized to day 0 (E3 0.3 mg/kg on days 14+18, day 2): 102.98
- Body weight normalized to day 0 (E3 0.3 mg/kg on days 14+18, day 3): 106.95
- Body weight normalized to day 0 (E3 0.3 mg/kg on days 14+18, day 4): 110.50
- Body weight normalized to day 0 (E3 0.3 mg/kg on days 14+18, day 7): 120.03
- Body weight normalized to day 0 (E3 0.3 mg/kg on days 14+18, day 8): 121.38
- Body weight normalized to day 0 (E3 0.3 mg/kg on days 14+18, day 9): 121.57
- Body weight normalized to day 0 (E3 0.3 mg/kg on days 14+18, day 10): 118.27
- Body weight normalized to day 0 (E3 0.3 mg/kg on days 14+18, day 11): 116.02
- Body weight normalized to day 0 [7]: 108.43
- Body weight normalized to day 14 [7]: 100.00
- Body weight normalized to day 0 [8]: 109.59
- Body weight normalized to day 14 [8]: 101.05
- Body weight normalized to day 0 [9]: 111.54
- Body weight normalized to day 14 [9]: 102.88
- Body weight normalized to day 0 [10]: 113.57
- Body weight normalized to day 14 [10]: 104.76
- Body weight normalized to day 0 [11]: 116.13
- Body weight normalized to day 14 [11]: 107.11
- Body weight normalized to day 0 [12]: 120.62
- Body weight normalized to day 14 [12]: 111.26
- Body weight normalized to day 0 [13]: 122.88
- Body weight normalized to day 14 [13]: 113.31
- Body weight normalized to day 0 [14]: 125.36
- Body weight normalized to day 14 [14]: 115.59
- Body weight normalized to day 0 [15]: 125.33
- Body weight normalized to day 14 [15]: 115.58
- Body weight normalized to day 0 (E3 1.0 mg/kg on days 14+18, day 0): 100.00
- Body weight normalized to day 0 (E3 1.0 mg/kg on days 14+18, day 1): 98.81
- Body weight normalized to day 0 (E3 1.0 mg/kg on days 14+18, day 2): 103.18
- Body weight normalized to day 0 (E3 1.0 mg/kg on days 14+18, day 3): 106.52
- Body weight normalized to day 0 (E3 1.0 mg/kg on days 14+18, day 4): 110.52
- Body weight normalized to day 0 (E3 1.0 mg/kg on days 14+18, day 7): 121.54
- Body weight normalized to day 0 (E3 1.0 mg/kg on days 14+18, day 8): 124.28
- Body weight normalized to day 0 (E3 1.0 mg/kg on days 14+18, day 9): 125.60
- Body weight normalized to day 0 (E3 1.0 mg/kg on days 14+18, day 10): 124.11
- Body weight normalized to day 0 (E3 1.0 mg/kg on days 14+18, day 11): 121.27
- Body weight normalized to day 0 [16]: 111.72
- Body weight normalized to day 14 [16]: 100.00
- Body weight normalized to day 0 [17]: 112.30
- Body weight normalized to day 14 [17]: 100.53
- Body weight normalized to day 0 [18]: 115.00
- Body weight normalized to day 14 [18]: 102.95
- Body weight normalized to day 0 [19]: 118.08
- Body weight normalized to day 14 [19]: 105.74
- Body weight normalized to day 0 [20]: 121.16
- Body weight normalized to day 14 [20]: 108.46
- Body weight normalized to day 0 [21]: 126.90
- Body weight normalized to day 14 [21]: 113.57
- Body weight normalized to day 0 [22]: 130.41
- Body weight normalized to day 14 [22]: 116.71
- Body weight normalized to day 0 [23]: 137.81
- Body weight normalized to day 14 [23]: 123.35
- Body weight normalized to day 0 [24]: 138.93
- Body weight normalized to day 14 [24]: 124.41
- Body weight normalized to day 0 (E3 5.0 mg/kg on days 14+18, day 0): 100.00
- Body weight normalized to day 0 (E3 5.0 mg/kg on days 14+18, day 1): 98.25
- Body weight normalized to day 0 (E3 5.0 mg/kg on days 14+18, day 2): 101.82
- Body weight normalized to day 0 (E3 5.0 mg/kg on days 14+18, day 3): 105.47
- Body weight normalized to day 0 (E3 5.0 mg/kg on days 14+18, day 4): 109.29
- Body weight normalized to day 0 (E3 5.0 mg/kg on days 14+18, day 7): 119.77
- Body weight normalized to day 0 (E3 5.0 mg/kg on days 14+18, day 8): 121.96
- Body weight normalized to day 0 (E3 5.0 mg/kg on days 14+18, day 9): 123.04
- Body weight normalized to day 0 (E3 5.0 mg/kg on days 14+18, day 10): 120.00
- Body weight normalized to day 0 (E3 5.0 mg/kg on days 14+18, day 11): 117.97
- Body weight normalized to day 0 [25]: 111.58
- Body weight normalized to day 14 [25]: 100.00
- Body weight normalized to day 0 [26]: 113.33
- Body weight normalized to day 14 [26]: 101.61
- Body weight normalized to day 0 [27]: 116.06
- Body weight normalized to day 14 [27]: 104.09
- Body weight normalized to day 0 [28]: 119.14
- Body weight normalized to day 14 [28]: 106.85
- Body weight normalized to day 0 [29]: 122.14
- Body weight normalized to day 14 [29]: 109.53
- Body weight normalized to day 0 [30]: 128.60
- Body weight normalized to day 14 [30]: 115.32
- Body weight normalized to day 0 [31]: 132.82
- Body weight normalized to day 14 [31]: 119.11
- Body weight normalized to day 0 [32]: 140.79
- Body weight normalized to day 14 [32]: 126.36
- Body weight normalized to day 0 [33]: 141.77
- Body weight normalized to day 14 [33]: 127.25
- change in body weight vs vehicle-treated arthritic animals (two-way ANOVA) (data normalized to day 0, 0.03 mg/kg (p<0.002)): significant change in body weight
- change in body weight vs vehicle-treated arthritic animals (two-way ANOVA) (data normalized to day 14, 0.03 mg/kg (p<0.005)): significant change in body weight
- weight loss compared with saline treated arthritic rats (rat, in vivo): less apparent weight loss than saline treated arthritic rats
